From the nanobody polyreactivity screen of Harvey et al. (2022)

Experiment: yeast display, Sf9 membrane polyspecificity reagent, FACS + sequencing; frameworks hold sequencing errors
In short: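 Galactose-induced (36–48 hours) yeast carrying a synthetic nanobody display library were exposed to 10% biotinylated, detergent-solubilized Sf9 membrane reagent at 4 °C for 1 hour. FACS followed streptavidin microbead enrichment, using low and high (top ~1%) gates for expression (anti-HA) and reagent binding (streptavidin). Colony PCR, MiSeq 2 × 250 sequencing and CDR-length filtering followed. Labels for polyreactivity reflect the gate of origin.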

Sequence	polyreactivity (PSR sort gate)
QVHLVESGGGLVQAGGSLRISCAASGSNFSYYARGWYRQAPGKESELVAAISQSGGTTYYADSVKGRFTISRDHAKNTVYLQMNCLKPEDTAVYYCAARAPSSFDTQYYYWGLGTQVTVSS	low polyreactivity
QVHLVESGGGLVQAGGSLRLSCAASGYRNAMGWYRQAPGKERELVAAISSGGSTYADSVKGRFTISRDNAKNTVYLQMNSLKPEDTAVYYCAAGPVPTYDYGNFDYWGQGTQVTVSS	low polyreactivity
QVQLVESGGGLVQAGGSLRLSCAASGRTFTAYAMGWYRQAPGKERELVAAITVSTSSTFYADSVKGRFTISRDNAKNTVYLQMNSLKPEDTAVYYCNKETLYPLDYWGEGTQVTVSS	low polyreactivity
QVHLVESGGGLVQAGGSLRLSCAASGSTFQWYAMGWYIQAPGKERELVATISYTGGSRTYYADSVKGRFTNSRDNAKNTVYLQMNSLKPEDTAVYDCAAESNQLFYFRRFDFWGQGTQVTVSS	low polyreactivity
QVQLVESGGGLVQAGGSLRLSCAASGRTFYHYAIGWSRQAPGKEREMVAAITRRGGSTYYADSVKGRFTISRDNAKNTVYLQMNRLKPEDTAVYYCAVDGVTSRRYVYEYWGQGTQVTVSS	high polyreactivity
QVQLVESGGGLVQAGGSLRLICAASGRTFKFNAMGWYRQAPGKERELVARITGGRTNYADSVKGRFTISRDNAKNTVYLQLNSLKPEDTAVYYCAADRYYGYSQDRRRYGYWGQGTQVTVSS	high polyreactivity
QVQLVESGGGLVQAGGSLRLSCAASGFIFLSNGMVWYRQAPGKERELVAAISSSGGSTYYADSVKGRFTISRDTAKNTVYLQMNSLKPEDTAVYYCAKDNGPWFAYDYWGQGSQVTVSS	low polyreactivity
QVQLVESGGGLVQPGGSFHLSCAASGSIFVVYAMGWYRQAPVKERELVAAITSGGSTYYADSVKGRFTISRDNAKKTVYLQMNSLKPEDTAVYYCATTYRDGVYELTTFDYWGQGTQVTVSS	low polyreactivity
QVQLVESGGGLVQAGGSLRLSCAASGFIFGINAMGWYRQAPGKEREFVATITSGGGTNYADSVKGLFTISRDNAKNTVYLQMHSLKPEDTAVYYGAAEEDYIYFYVSMDYWGQGTQVTVSS	low polyreactivity
QVQLVESGGGLVQAGGSLRLSCAASGSTFGGNAMGWYRQAPGKEREFVAAIRFSGGSTYYADSVKGRFTISRDNAKNTVYLQMNSLKPEDTAVYFCAKRGYGHLIPIAYEYWGQGTQVTVSS	low polyreactivity
QVQLVESGGGLVQAGGSLRLSCAASGFIFPSYAMGWYRQAPGKERELVAAISWTGGTYYADSEKGRFTISRDNAKNTVYFQMNSRKPEDTAVYYCAVRYKRKGSGYRTNAYDYWGQGTQVTVSS	high polyreactivity
QVQLVETGGGLVQAGGSLRLSCAASGRTFRYNAMGWYRQAPGKERELVAAITGSGGSTYYADSVKGRFTISRDNAKNTVYLQMNSLKPEDTAVYYCARAYSYRLYPYGSWGQGTQVTVSS	high polyreactivity
QVQLVESGGGLVQAGGSLSLSCAASGSTIVVNAMGWYRQAPGKERELVASISWTTCSTYYADSVKGRFTISRDNAKNTVYLQMNSLKPEDTAVYYCAADILPRYSQFDYWGQGTQVTVSS	low polyreactivity
QLQLVESGGGLVQAGGSLRLSCAASGGIFGYYTMGSYRQAPGKEREFVAAITSRGGSTYYADSVKGRFTISRDTAKNTVYLQMNSLKPEDTAVYYCAARRQRDRYGYWGQGTQVTVSS	high polyreactivity
QVQLVESGGGLVQAGGPLRLSCAASGYLFSYYAMGWSRQAPGKERELVATIDWGGGSTYYADSVKGRFTISRDNANNTVYLQLNSLKPEDTAVYYCSKDYYINKYGYRYDSWGQGTQVTVSS	low polyreactivity
QVQLVESGGGLVQAGCSLRLSCAASGRIFVKYTMGWYRQAPGKERELVAAIDFDTDSKYYADSVKGRFTFSRDNAKNTVYFQMNSLNPEDTAVYYCAADSYYYGYQGQTQYGWVWYDYWGQVTQVTVSS	low polyreactivity
QVQLVESGGGLVQAGGSLRFSCAASGSTFVRYPMGWYRQAPGKERELVAAITRSGGRTYYADSVKGRFTISRDNAKNTVYLQMNSLKPEDTAVYYCAADVSHVQGYDYWGQGTQVTVSS	high polyreactivity
QVQLVESGGGLVQAGGSLRLSCAASGRIFGYNSMGWYRQAPGKERELVAAIRRSGGRTFYADSVKGRFTLSRDNAKNTVYLQMNRLKPEDTAVYYCAVRGPGTSTYWYHEYEYWGQGTQVTVSS	high polyreactivity
QVQLVETGGGLVQAGGSLRLSCAPSGSIYYINAMGWYRQAPGKERELVAAIRSGGSTNYADSVKGLFTISRDNAKNTVYLQMNSLKPEDTAVYYCNARSRSYVPYYYWGQGTQVTVSS	high polyreactivity
QVQLVESGGGLVQAGGSLRLSCAASGRIFHYNAMGWYRQARGKERQLVAAITGGGGSTYYADSVKGRFTISRDNAKNTVYLEKNSLKPEDTAVYYCAKRYRSSSIRVYYWGLGTQVTVSS	high polyreactivity
QVQLVESGGGLVQAGGSLRLSCAASGSIFRGYAMGWYRQAPGKERELVATIDSSAGSTYYADSVKGRFTISRDNAKNTVYLQMNSLIPEDTAVYYCATDPYGYYYSGFDNWGQGTQVTVSS	low polyreactivity

Sequence	polyreactivity (PSR sort gate)
QVQLVESGGGLVQAGGSLRLSCAASGSIFYGNTMGWYRQAPGKERELVAGITRGGGSTYYADSVKGRFTISRDNAKNTVYLQMNSLKPEDTAVYYCAATFPYHDGDYWGQGTQVTVSS	low polyreactivity
QVQLVDSGGYLVQAGGSLRLSCAASGTTSLFYAMGWYRQAPGKERELVAAISRTGSTHYADSVKGRFTIARANAKYTVYLQMNSLKAEDTAVYYCAAYYRYRSGRYYYWGQGTQVTVSS	high polyreactivity
QDQIVESGGGLVQAGGSLRLSCAASGSTFQANAMGWYRQAPGKERELVAAISRSGGSTYYADSVKGRFTISRDNAKNTVYLQMNSLKPEDTAVFYCAADYEYSGYGYWGQGTQVTVSS	high polyreactivity
QVQLVESGGGLVQAGGSLRLSCAASGRIFYRYAMGWYRPAPGKERELVATITGRGGSTYYADSVKGRFTISRDNAKNTVYLQMNSLKPEDTAVYYCATTRSVSYPYDGSYYWGQGTQVTVSS	high polyreactivity
QVQLVESGGGLVQAGGSLRLSCAASGSTFAGNPMGWYRQATGKERELVAAIDSSTGSTYYADSVKGRFTISRDNAMNTVYLQMNSLKPEDTAVYYCNKTSFLVKLDYWGQGTQVTVSS	low polyreactivity
QVQLVESGGGLVQAGGSLRLSCAASGSTFPTYAMGWYRQAPGKERELVAAISRSGGRTYYADSVKGRFTISRDNAKNTVYLQMNSLKPEDTAVYYCAAQYRLSGGYNYDYWGQGTQVTVSS	high polyreactivity
QVQLVESGGGLVQAGGSLRISCAASGSTFTINVMGWYTQAPGKERELVAAINGGGRTNYADSVKGRFTISRDNAKNTVYLQMNSLIPEDSAVYYCAADGLSIVRQMDYWGLGTQVTVSS	low polyreactivity
QVQLVESGGGLVQAGGSLRLSCAPSGRTLRGYAMGWYRQAPGKEREFVAAISSRGGSTYYADSVKGRFTISRDNAKNTVYLQMHSLKPEDTAVYYCAALRPLFATSHARDYWGQGTQVTVSS	high polyreactivity
QVQLVESGGGLVQAGGSLRLSCAASGRTLPSNTMGWYRQAPGTERELVAAISKNGGSTYYADSVKGRFTISRDNAMNTVYLQMNSLKPEDTAVYYCNARYLYGRYRSPLDDYWGQGTQVTVSS	high polyreactivity
QVQLVESGGGLVQAGGSLRLSCAASGRIFSYNAMGWYRQAPGKERELVAAISSGGSTYYADSVKGRFTISRDNAKNTVYLQMNSLKPEDTAVYYCAADRRYYSDMYYWGQGTQVTVSS	low polyreactivity
QVQLVESGGGLVQAGGSLRLSCAASGFTFRWYAMGWYRQAPGKERELVAAITSRGGTTYYADSVKGRFTISRDNAKNTVYLQMNSLKPEDTAVYYCAALNSGYIGMDYWGQGTQVTVSS	high polyreactivity
QVQLVESGGGLVQAGGSLRLSCAASGSTFDTYTRGWYRQAPGKERELVAAITTSGGSTYYADSVKGRFTISRDNAKNTVYLQMNSLKPEDTAVYYCAADFFPGGYPEMDYWGQGTQVTVSS	high polyreactivity
QVQLVETGGGLVQAGGSLRLSCAASGRTFDGNVMGWYRQEPGKERELGAAISDRGTRTYYADSVKGRFTISRDNAKNTVYLQMNSLKPEDTAVYYCATRVYFSPYRYDYWGQGTQGTVSS	high polyreactivity
QVQLVESGGGLVQAGGSLRLSCAASGYTFRYYAMGWYRQAPGKEREFVAAITWSDSGTYYADSVKGRFTISRDNAKNTVYLQMNSLKPEDTAVYYCAAERYLSFDRYLYEYYYWGQGTQVTVSS	low polyreactivity
QVQLVESGGGLVQAGGSLRLSCAASGSIFTHNAMGWYRQAPGKERELVAAISSGGSTNYADSVKGPFTISRDNAKNTVYLQMNSLKPEDTAVYYCAKSIDGWYWRRRRYDYWGQGTQVTVSS	low polyreactivity
QVQLVESGGGLVQAGGSLRLSCAASGFTFRHNTMGWYRQAPGKERELVAAISIGGRTYYADSVKGRFTISRDNAKNTVYLQMNSLKPEDTAVYYCAKLSRGQSPGYDYWGQGTQVTVSS	high polyreactivity
QVQLVESGGALVQAGGSLRLSCAASGSTFDANVMGWYRQAPGKERELVAAISRDTNTYYADSVKGRFTISRDNAKNTVYLQMNSLKPEDTAVYYYWGQGTQVTVSS	low polyreactivity
QVQLVESGGGLVQARGSLRLSCAASGGTFLSYAMGWYRQAPGKERELVAGISSGGSTNYADSVKGRFTISRDNAKNTVYLQMNSLKPEDTAVDYCAADSFPSEFDYWGQGTQVTVSS	low polyreactivity
QVQLVESGGGLVQAGGSLRLSCAASGSIFYLYAMGWYRQAPGKERELVAGITTSGGTTYYADSVKGRFTISRDNAKNTVYLQMNSLKPEDTAVYYCNAAVGYYSLPYDYWGQGTQVTVSS	low polyreactivity
QVQLVESGGGLVQAGGSLRLSCAASGRTFPVNAMGWYRQAPAKQSELVATISWSGGSTYYADSVKGRFTISRDNAKNTVYLQMNSLKPEDTAVYYCAALGRHYRYDYWGQGTQVTVSS	low polyreactivity
